Reference: patent publication US9791449B2, “Ovarian cancer stem cells and methods of isolation and uses thereof” (THE GENERAL HOSPITAL CORPORATION, priority 2011, dated 2017)
“Also recorded” adds a separate entry of the source.

Key:
3+/Ecad− OVCAR-5 cells = assay: Colony formation assay of FACS-separated cells; type: cell-based, human; conditions: OVCAR-5 3+/Ecad− cells, 2000 cells in six-well plates; MIS 30 ug/ml or Doxorubicin 30 nM vs media, 14 days
Protocol: Colony formation was performed as previously described (4; wei 2010). 3+/Ecad− or 3−/Ecad+ cells separated from the ovarian cancer cell lines were treated with MIS or doxorubicin, cisplatin, or taxol, then plated on 6-well plates containing 2 ml/well complete DMEM medium at 500, 1000, or 2000 cells/well, and incubated for 14 days at 37° C., with a media change at day 7. Cells separated from primary ascites were plated on 12-well plates coated by metrigel or by agarose for colony formation assays at 25,000, 50,000, or 100,000 cells/well. Cells were seeded on 1:2 metrigel or in 0.4% agarose over a 0.8% layer, and incubated for 3-4 weeks at 37° C. At day 14 (cell lines) or day 21 (ascites), plates were washed with 1×PBS, and cells fixed with methanol. Resulting colonies were stained with Giemsa and the stained area captured and analyzed using Image J (Rasband, NIH, USA, http://rsb.info.nih.gov/ij/). Large colonies greater than 4 mm at 10× magnification were also counted and compared.

OVCAR-5 cells = assay: Cell cycle analysis by flow cytometry; type: cell-based, human; conditions: 100 μg/mL (714 nM) MIS or 60 nM doxorubicin, 48 h
Protocol: OVCAR-5 was grown to 50-60% confluency in DMEM with 10% FCS, untreated or treated with 100 μg/mL (714 nM) MIS or 60 nM doxorubicin for 48 h, harvested, and incubated with 10 μg/mL Hoechst 33342 at 37° C. for 30 min or 40 μg/mL propidium iodide (Sigma) at 25° C. for 30 min. Cells were stained with anti-human CD24-PE, anti-mouse/human CD44-APC/Cy7, anti-human Epcam-APC, and anti-human Ecadherin-FITC for 20 min at 4° C. and fixed in paraformaldehyde (1%), and the cell cycle was analyzed using the SORP LSRII.

[1] = tested on: MOVCAR-7 and MOVCAR-8 cell lines; assay: qPCR of CDK inhibitor mRNAs relative to GAPDH; type: cell-based, mouse
Protocol: Total microRNA (miRNAs) were extracted from the different cell lines HOSE-4, HOSE-6, OVCAR-5, OVCAR-3, OVCAR-8, IGROV-1, and SKOV-3 using the miRNeasy Mini kit (QIAGEN) and reverse-transcribed to cDNAs using the TaqMan MicroRNA Reverse Transcription Kit (Applied Biosystems). Levels of Let-7c miRNAs were measured by quantitative PCR using TagMan Let-7 probes (Applied Biosystems; part no. 4373167) with U47 RNA as internal standard for normalization. Total mRNAs were also extracted from separated and unseparated OVCAR-5, MOVCAR-7, and MOVCAR-8 cell lines using an RNeasy Mini kit (QIAGEN) and reverse-transcribed to cDNAs using the SuperScript III Reverse Transcription Kit (Invitrogen). Levels of Lin28 and cyclin-dependent kinase (CDK) inhibitor mRNAs were measured by quantitative PCR with GAPDH as an internal standard using the following primers: […]
LIN28 F ([…])(SEQ ID NO: 34) and R ([…])(SEQ ID NO: 35); p15 F ([…])(SEQ ID NO: 36) and R ([…])(SEQ ID NO: 37); p16 F ([…])(SEQ ID NO: 38) and R ([…])(SEQ ID NO: 39); p18 F ([…])(SEQ ID NO: 40) and R ([…])(SEQ ID NO: 41); p19F ([…])(SEQ ID NO: 42) and R ([…])(SEQ ID NO: 43); p21 F ([…])(SEQ ID NO: 44) and R ([…])(SEQ ID NO: 45); p27 F ([…])(SEQ ID NO: 46) and R ([…])(SEQ ID NO: 47); CDK2 F ([…])(SEQ ID NO: 48) and R ([…])(SEQ ID NO: 49); CDK4 F ([…])(SEQ ID NO: 50) and R([…])(SEQ ID NO: 51); CDK6 F ([…])(SEQ ID NO: 52) and R ([…])(SEQ ID NO: 53); and GAPDH F ([…])(SEQ ID NO: 54) and R ([…])(SEQ ID NO: 55). Relative fold changes of Let-7c miRNAs and Lin28 and CDK inhibitor mRNAs were calculated as ΔCt or ΔΔCt (1) (n=3 for each primer).

[2] = tested on: SMAD1/5/8 in MOVCAR-8 cells; assay: Western blot with phospho-Smad1/5/8 antibody; type: cell-based, mouse; conditions: MOVCAR-8, 20 ug/ml MIS for 15 min, 2, 4 and 6 h
Protocol: (§1) FIGS. 5A-5B show MISRII is expressed in ovarian cancer cell lines and SMAD 1/5/8 is phosphorylated after treatment with purified MIS. FIG. 5A show expression of MIS type II receptor in human ovarian cancer cell lines OVCAR-5, IGROV-1 and SKOV-3, and in mouse ovarian cancer cell line MOVCAR-8 were analyzed by immunoprecipitation and cross immunoblotting (IB) of lysates with anti-MISRII (Left) Immunoblotting was also performed to detect MISRII expression in separated 3+, 3−, 3+/Ecad−, 3−Ecad+ of OVCAR-5 xenograft tumors (Right). COS cells transfected with a MISRII vector or a pcDNA empty vector served as positive or negative controls (Right). […] MOVCAR-8 (Left) or OVCAR-5 (Right) cells were treated with 20 ug/ml (Left) or 100 ug/ml (Right) MIS for 15 min, 2, 4 and 6 h, and protein was analyzed by Western blot using a phospho-Smad1/5/8 antibody.
(§2) Lysates were harvested in lysis buffer (Cell Signaling; catalog no. 9803) for 15 min from 80% subconfluent cells or from ascite cells after lysing red cells. Proteins were fractionated on SDS-polyacrylamide gels and transferred to a membrane. […] Blots were washed (three times) with TBST the following day for 30 min and incubated with the appropriate peroxidase-conjugated second antibodies for 1 h, and bound antibodies were detected with enhanced chemiluminescence (PerkinElmer Life Sciences).

[3] = tested on: SMAD1/5/8 in OVCAR-5 cells; assay: Western blot with phospho-Smad1/5/8 antibody; type: cell-based, human; conditions: OVCAR-5, 100 ug/ml MIS for 15 min, 2, 4 and 6 h
Protocol: as §1, §2

[4] = tested on: Lin28 in OVCAR-5 cells or primary ascites; assay: Effect of exogenously administered MIS on Lin28 expression; type: cell-based, human; conditions: separated or unseparated OVCAR-5 cells or primary ascites; data not shown
[5] = tested on: ovarian cancer cells marked by CD44, CD24, and Epcam (3+); conditions: cited from earlier work
3+/Ecad− population = conditions: cited from earlier work
[6] = tested on: epithelial ovarian cancers; conditions: cited from earlier work
[7] = in vivo; cited from earlier work
OVCAR-8 cells = conditions: cited from earlier work
[8] = listed as human recombinant MIS

B1: MIS: 140 kDa glycoprotein disulfide linked homodimer secreted by fetal testes; produced recombinantly and immunoaffinity purified (protein, listed as Homo sapiens)
chain: MRDLPLTSLALVLSALGALLGTEALRAEEPAVGTSGLIFREDLDWPPGSPQEPLCLVALGGDSNGSSSPLRVVGALSAYEQAFLGAVQRARWGPRDLATFGVCNTGDRQAALPSLRRLGAWLRDPGGQRLVVLHLEEVTWEPTPSLRFQEPPPGGAGPPELALLVLYPGPGPEVTVTRAGLPGAQSLCPSRDTRYLVLAVDRPAGAWRGSGLALTLQPRGEDSRLSTARLQALLFGDDHRCFTRMTPALLLLPRSEPAPLPAHGQLDTVPFPPPRPSAELEESPPSADPFLETLTRLVRALRVPPARASAPRLALDPDALAGFPQGLVNLSDPAALERLLDGEEPLLLLLRPTAATTGDPAPLHDPTSAPWATALARRVAAELQAAAAELRSLPGLPPATAPLLARLLALCPGGPGGLGDPLRALLLLKALQGLRVEWRGRDPRGPGRAQRSAGATAADGPCALRELSVDLRAERSVLIPETYQANNCQGVCGWPQSDRNPRYGNHVVLLLKMQARGAALARPPCCVPTAYAGKLLISLSEERISAHHVPNMVATECGCR
modifications: homodimer
3+/Ecad− OVCAR-5 cells
  colony formation of 3+/Ecad− cells: decreased colony formation; also recorded: decreases significantly; also recorded: significantly inhibited colony growth; also recorded: significant reduction in absolute colony number and cell number; also recorded: significant reduction in absolute colony numbers; also recorded: inhibited colony formation
OVCAR-5 cells
  G1 distribution of 3+/Ecad+ population: neither MIS nor doxorubicin affected
  percentage of 3+/Ecad− cells in G1: inducing G1 arrest; also recorded: significantly increased; also recorded: G1 accumulation; also recorded: induces G1 cell cycle arrest
[1]; MOVCAR-7 and -8, 50 μg/mL MIS or 60 nM doxorubicin vs vehicle, 4 h
  p15 expression: specifically increased; also recorded: significant and opposite responses
[1]; MOVCAR-7 or -8, 50 μg/mL MIS or 60 nM doxorubicin, 4 h
  other CDK inhibitors mRNA levels (p18, p19, p21, p27): did not regulate significantly
[1]; MOVCAR-8, 50 μg/mL MIS vs vehicle, 4 h
  p16 expression: specifically increased
[1]; transgenic cell lines treated with MIS or doxorubicin, data not shown
  kinases tested (CDK2, CDK4, CDK6): unaffected
[2]
  SMAD1/5/8 phosphorylation: significantly increased
[2]; [8]
  SMAD1/5/8 phosphorylation: activates SMAD1/5/8 signaling
[3]
  SMAD1/5/8 phosphorylation: significantly increased
[3]; [8]
  SMAD1/5/8 phosphorylation: activates SMAD1/5/8 signaling
[4]
  effect on Lin28 expression: no direct effect
[5]
  inhibition of 3+ enriched population: significantly inhibited
3+/Ecad− population
  response of 3+/Ecad− population: responded well
[6]
  combination with commonly used cancer drugs to control tumor growth: synergistically or additively
[6]; in vitro and in vivo
  growth of epithelial ovarian cancers: inhibits their growth
[7]
  toxicity after prolonged therapy: without obvious toxicity
OVCAR-8 cells
  P16 protein level: upregulated
